Assay [1] has as its target T1, human PD-L1 on cell surface (human, UniProt Q9NZQ7 19-290). Description: cell-based or functional assay.
The target of assay [2] is T2, human PD-L1 protein (human, UniProt Q9NZQ7 19-238, limits assumed). Description: ELISA on human PD-L1 protein; antibody after 14 days at 40 C (D14). As to the method:
(§1) The antibody samples were treated separately at 40° C., and then centrifuged to remove the pellet. Then the amount of remaining antibody was evaluated by ELISA. (test after treatment at 40° C. for 7 days (D7) and 14 days (D14) separately; for each test, the untreated sample (D0) stored at −80° C. is used as a control) (FIG. 3)
Background: An ELISA detects its analyte on a solid surface through an enzyme-linked reagent.

The target of assay [3] is T3, PD-L1-HIS recombinant protein (human, UniProt Q9NZQ7 19-238, limits assumed).
T3 construct: not shown: His tag
As to the kind of experiment: SPR (Biacore 8K), antibody captured on chip, PD-L1-HIS analyte 2.5-80 nM, 1:1 binding model. How it is done: The chip surface was equilibrated with HBS-EP buffer at a flow rate of 10 μl/min for 5 min, and then a 1:1 mixture of “NHS+EDC” was injected at a flow rate of 10 μl/min for 420 sec to activate the chip. The capture antibody (goat anti-murine IgG) diluted in 10 mM sodium acetate buffer was injected for about 420 sec at a flow rate of 10 μl/min for coupling, and finally ethanolamine was injected for 420 sec at a flow rate of 10 μl/min to block the surface.
Three pre-cycles were performed with the HBS-EP buffer as a sample to balance the chip to stabilize the baseline. The antibody diluted in HBS-EP buffer was injected for 30 sec at a flow rate of 10 μl/min (where the antibody-antigen binding signal was controlled to about 100 RU by adjusting the capture time between 0-5 min), and then the chip was equilibrated with the buffer for 1 min. The low-concentration antigen 2.5 nM PD-L1-HIS was injected at a flow rate of 30 μl/min for 240/300 seconds, to allow the antigen to bind to the antibody, and then the buffer was injected at a flow rate of 30 μl/min for 720/600 seconds for dissociation. 50 mM HCl were injected three times each for 15 s at a flow rate of 100 μl/min for regeneration, to complete one cycle. The antigen concentration was changed (such as 5 nM PD-L1-HIS) to carry out the cycle for measurement at a next gradient concentration until all gradient concentrations (2.5 nM, 5 nM, 10 nM, 20 nM, 40 nM, 80 nM PD-L1-HIS) and the replicate (such as 10 nM PD-L1-HIS) were tested.
The experimental data was double subtracted (minus the background values of the control channel and zero concentration), and fitted to the “1:1 binding” model in the Biacore 8K evaluation software. Biacore 8K was used to determine the affinity of the antibody to the PD-L1-HIS recombinant protein.

Assay [4] addresses T2, human PD-L1 protein. As to the kind of experiment: ELISA on human PD-L1 protein; untreated antibody (D0) and antibody after 7 days at 40 C (D7). As to the method:
as §1

Assay [5] deals with T2, human PD-L1 protein. Description: ELISA on human PD-L1 protein; antibody treated for 20 min at room temperature to 70 C and -80 C control (curves not told apart). How it is done:
(§2) The antibody samples were treated for 20 min at various temperature gradients respectively, and then centrifuged to remove the pellet. Then the amount of remaining antibody was evaluated by ELISA. (The temperature gradient includes: room temperature, 30° C., 40° C., 50° C., 60° C., 70° C., […]) (FIG. 4)

Assay [6] has as its target T2, human PD-L1 protein. Description: ELISA on the antigen (human PD-L1); antibody untreated (0), after oxidative stress (AAPH, 24 h) or deamidation stress (pH 9.0, 48 h); curves not told apart.
For assay [7], the target named is T1, human PD-L1 on cell surface. As to the kind of experiment: flow cytometry on CHO cells expressing human PD-L1, fitted curve. How it is done: (§3) CHO cells expressing human or monkey PD-L1 and parent cells as a negative control were washed 3 times with PBS. 2.5×10⁵ detection cells and 100 μl of 3-fold serial dilutions of purified antibody with an initial concentration of 300 nM were added to a 96-well plate and incubated at 4° C. for 1 hr. […] Finally, the cells were washed 3 times with PBS, and the signal was read on FACS BD Calibur.
(In flow cytometry, cells or beads pass a laser one at a time.)

Assay [8] concerns the target T4, monkey PD-L1 on cell surface (monkey).
T4 construct: whole, on cells; also called monkey PD-L1 cell line; CHO cells overexpressing monkey PD-L1
As to the kind of experiment: flow cytometry on CHO cells expressing monkey PD-L1, fitted curve. As to the method: as §3
Moreover, CHO cells overexpressing monkey PD-L1 were used to test the cross-recognition binding to monkey PD-L1 by the antibodies.

Assay [9] concerns the target T2, human PD-L1 protein. Description: ELISA on human PD-L1 protein; antibody treated for 20 min at 70 C. How it is done: as §2
For assay [10], the target named is T2, human PD-L1 protein. As to the kind of experiment: ELISA on human PD-L1 protein; antibody treated for 20 min (all overlapping curves). How it is done:
as §2

The target of assay [11] is T2, human PD-L1 protein. As to the kind of experiment: ELISA on human PD-L1 protein; antibody kept at 40 C for 0 (D0), 7 (D7) or 14 (D14) days. How it is done:
as §1

Assay [12] has as its target T5, biotin-labeled PD-L1-Fc (human, UniProt Q9NZQ7 19-238, limits assumed, biotin-labeled (sites not given)).
T5 construct: not shown: Fc part
Description: ELISA: biotin-PD-L1-Fc binding to coated human PD-1 with titrated antibody; enhancement of PD-L1/PD-1 binding. How it is done:
(§4) The ELISA plate (Nunc) was coated with 100 μl/well of 0.5 μg/ml recombinant human PD-1 protein in PBS at 4° C. overnight. The plate was washed with PBS-T (0.05% Tween), and blocked with 200 μl/well of PBST containing 1% BSA at 37° C. for 0.5 hr. Then the blocking buffer was discarded, and 50 μl of 10 μg/ml purified antibody to be tested was added to the first test well. 3-fold serial dilutions were made, and a total of 11 test concentration gradients were given. […] The plate was washed 3 times with PBST, and incubated with 100 μl/well of Streptavidin-HRP (SA-HRP, GenScript) at 37° C. for 10 min. Finally, the plate was washed 5 times with PBST, and then a TMB developing solution (GenScript) was added and incubated at room temperature for 15 min in the dark. The reaction was terminated by adding 50 μl of 1M HCl stop solution (Sigma). The plate was read at 450 nm on a microplate reader.

The target of assay [13] is T5, biotin-labeled PD-L1-Fc. As to the kind of experiment: ELISA: biotin-PD-L1-Fc binding to coated human PD-1 with titrated antibody, OD 450 nm, fitted curve; enhancement. As to the method: as §4
Assay [14] deals with T5, biotin-labeled PD-L1-Fc. As to the kind of experiment: flow cytometry: biotin-PD-L1-Fc binding to CHO cells expressing human PD-1 with titrated antibody, fitted curve; enhancement. As to the method:
(§5) In the FACS test, CHO cells expressing human PD-1 and parent cells as a negative control were washed 3 times with PBS. 2.5×10⁵ detection cells and 50 μl of 3-fold serial dilutions of purified antibody with an initial concentration of 300 nM were added to a 96-well plate. […] Then the cells were washed 3 times with PBS, 100 μl of iFluor647-labeled streptavidin (1 μg/ml) was added, and the cells were incubated at 4° C. for 45 min. Finally, the cells were washed 3 times with PBS, and the signal was read on FACS BD Calibur.

Assay [15] has as its target T5, biotin-labeled PD-L1-Fc. As to the kind of experiment: flow cytometry: biotin-PD-L1-Fc binding to CHO cells expressing human PD-1 with titrated antibody; enhancement of PD-L1/PD-1 binding. How it is done: as §5
The target in assay [16] is T2, human PD-L1 protein. Description: ELISA on the antigen (human PD-L1); antibody untreated (0), after oxidative stress (AAPH, 24 h) or deamidation stress (pH 9.0, 48 h); curves not told apart. This is another data set of the same source.

T1 sequence (Q9NZQ7 19-290): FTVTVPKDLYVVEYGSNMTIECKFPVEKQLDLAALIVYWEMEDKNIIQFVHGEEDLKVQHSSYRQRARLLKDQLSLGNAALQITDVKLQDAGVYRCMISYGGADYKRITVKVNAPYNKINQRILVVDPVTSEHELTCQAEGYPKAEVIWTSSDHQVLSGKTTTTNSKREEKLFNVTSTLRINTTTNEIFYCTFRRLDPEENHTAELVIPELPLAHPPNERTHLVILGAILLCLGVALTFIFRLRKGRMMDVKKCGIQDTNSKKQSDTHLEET
T2 sequence (Q9NZQ7 19-238 limits assumed): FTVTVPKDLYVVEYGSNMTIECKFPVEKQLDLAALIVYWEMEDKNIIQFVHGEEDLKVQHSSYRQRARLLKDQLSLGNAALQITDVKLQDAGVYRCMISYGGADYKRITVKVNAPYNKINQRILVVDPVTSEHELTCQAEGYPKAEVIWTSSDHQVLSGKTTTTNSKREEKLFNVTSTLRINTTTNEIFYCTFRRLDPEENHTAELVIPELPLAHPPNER
T5 sequence (Q9NZQ7 19-238 limits assumed): as above
T3 sequence (Q9NZQ7 19-238 limits assumed): as above

B1: AH01963 (antibody, human IgG1, V domains shown)
VH: QVQLQESGPGLVKPSQTLSLTCTVSGYSITSGYTWHWIRQHPGKGLEWIGYIHYSGSTKYNPSLKSRVTISRDTSKNQFSLKLSSVTAADTAVYYCARNSLFASWGQGTLVTVSS
VL: DIVLTQSPDSLAVSLGERATINCRASESVDTYGDSFMHWYQQKPGQPPKLLIYRASNLESGVPDRFSGSGSGTDFTLTISSVQAEDVAVYYCQQSNEAPYTFGGGTKLEIK
notes: also called mPD-L1Ab-CBM clone AH01963
The term EC50 (read off the curve) denotes the concentration giving half of the maximal effect. Usually Kd stands for a measure of binding affinity in units of concentration. By koff is commonly meant the first-order rate constant of dissociation. As a reminder, the kon is the second-order rate constant of association. With B1, in assay [1], the “Bottom (best-fit value) of IL-2 release, mixed lymphocyte reaction” value amounted to 1420; the “EC50 (µg/ml) of IL-2 release, mixed lymphocyte reaction” value is 0.0406 µg/mL; the “LogEC50 (best-fit value) of IL-2 release, mixed lymphocyte reaction” value was -1.39; the “Span (best-fit value) of IL-2 release, mixed lymphocyte reaction” value was determined as 930. In addition, in [1], the “Top (best-fit value) of IL-2 release, mixed lymphocyte reaction” value is 2350. The “EC50 (read off the curve)” value with human PD-L1 protein [2] was roughly 0.02 µg/mL. For the same molecule, in [3], the Kd worked out at 1.27 nM, the off-rate (koff) came out at 0.000274 s⁻¹ and the kon stood at 216000 M⁻¹ s⁻¹. Further, the “EC50 (read off the curve)” value with human PD-L1 protein [4] was roughly 0.01 µg/mL. In addition, in the assay with human PD-L1 protein [5], the “EC50 (read off the curve)” value was roughly 0.01 µg/mL. Also, in the assay with human PD-L1 protein [6], the 50% effective concentration (EC50 (read off the curve)) was roughly 0.02 µg/mL.

B2: AH02029 (antibody, human IgG1, V domains shown)
VH: QVQLQESGPGLVKPSQTLSLTCTVTGYSITSGYTWHWIRQHPGKGLEWIGYIHYSGSTKYNPSLKSRVSISRDTSKNQFSLKLSSVTAADTAVYYCARNSLFASWGQGTLVTVSS
VL: DIVLTQSPDSLAVSLGERATINCRASESVDTYGDSFMHWYQQKPGQPPKLLIYRASNLESGVPDRFSGSGSGTDFTLTISSLQAEDVAVYYCQQSNEAPYTFGGGTKLEIK
notes: also called mPD-L1Ab-5BM clone AH02029
Broadly, the EC50 is the concentration needed to bring the measured effect to its halfway point. For B2, the “Bottom (best-fit value) of IL-2 release, mixed lymphocyte reaction” value in assay [1] was found to be 1350. In assay [1], the “EC50 (µg/ml) of IL-2 release, mixed lymphocyte reaction” value turned out to be 0.0293 µg/mL. Also, the “LogEC50 (best-fit value) of IL-2 release, mixed lymphocyte reaction” value in [1] was -1.53. Also, the “Span (best-fit value) of IL-2 release, mixed lymphocyte reaction” value in [1] came to 1020. Also, the “Top (best-fit value) of IL-2 release, mixed lymphocyte reaction” value in [1] turned out to be 2370. The EC50 in [7] is 0.478 nM; in [8], 3.4 nM; in the assay with biotin-labeled PD-L1-Fc [12] it was 0.017 µg/mL; with biotin-labeled PD-L1-Fc [15], 38.7 nM. Besides, the LogEC50 in assay [7] is -0.321; in [8], 0.532; in the assay with biotin-labeled PD-L1-Fc [13], 1.23; with biotin-labeled PD-L1-Fc [14], 1.59. The concentration for a half-maximal effect (EC50 (read off the curve)) is roughly 0.04 µg/mL with human PD-L1 protein [9], roughly 0.01 µg/mL with human PD-L1 protein [10], roughly 0.01 µg/mL with human PD-L1 protein [11] and roughly 0.02 µg/mL with human PD-L1 protein [16]. Besides, the dissociation constant (Kd) in assay [3] was determined as 1.57 nM. Besides, in [3], the dissociation rate constant (koff) was found to be 0.000334 s⁻¹. Further, the kon in [3] turned out to be 213000 M⁻¹ s⁻¹.

Values taken from patent US20220073618A1 (NANJING GENSCRIPT BIOTECH, published 2022).
